These results are taken from the NTF2 design screens of Basanta et al. (2020).

The data set can be described thus: protease stability score; higher = more stable; yeast display proteolysis, trypsin and chymotrypsin.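 Note: relative to predicted unfolded state with 0 unfolded-like and 1 meaning tenfold more protease.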
Turning to “DDEEKHAHDILRLLFWVLMTGDEEIIRELFDPNVRVHIGDKEIHGWKELSRHTKEMRHHVRDTDEKDRRSDEDEIRLHGELDGELHFDGKRVKHRMDIHIIAVKIDGRWFFKSLYVR”, the protease stability score is 0.868.

The sequence “DDEEKLSKDASELWKKSMLTGDEDTLMKLADPHTRLEIRIGDKTDEIHGMEWVAHLLTNLGIDHFILRDEHIQGEKVIIRGEIDINGRTHESIIIVIIINGRLKSVTFIKL” yielded a protease stability score of 0.94.

Sequence “DDEEKMFVHLAKLFTDIMTTGDEKFLDELVDPNVRFDVNGRLRVGREELKKAIQDWWREIRVDEILIHEIDVIDGRLRMDGRMRGDIDGQETYLELHIILHVIDGRMTHVEIRHQ” displayed a protease stability score of 2.38.

As to “DDEEKRIQEASREMLEIMRTGDEERLKQMADPNARWHTKIDGQEVHRHGREEFIKIFRWVMERLGIDHVELHSIHIYNGQNDIDSRFHFDGRNHRILFIWVVYNGRLHHVRIEIQ”, the protease stability score is 1.58.

“DDEEKRYRLFYKIALTMFETGDWQILHELADPHVKVRVGDKDLHGREELTHFWKELVERYPNMKIRLDDLSLQGEKIHIEGTWHFDGKELTTHIDLIMVDGKLKETRYEHK” returned a protease stability score of 1.4.

In turn, “DDEEKSRDIAIEIFVHLLRTGDEHEMSKLADPHVKVNINGRELVGMEIFIEWIRRWSKEIRLHDVKVKDVRTQGDKIEVDGREDGIQGDKRKEVETSFFFRKYNGKWFIERMEFR” registered a protease stability score of 1.96.

“DDEEKYFRMAVHHIIHLLHTGDETDSEHQADPDVRITVGDKRFHGREDFRDWVRELTDRYKNMTFRLKSVDVQGDFIILHGLLHFNGKNVEFDVFSWKFNGKWFMHHIIVR” registered a protease stability score of 1.72.

As for “DDEERANRELLELLIHSYRTGDWKLWHELVDPHVRTSLHQGEFEMKSIGRHYVRDIMTYMGVDHVELRHLEIQGDKLIMHLELDVNGRRLHVILFLSKINGVWILREEEIRFI”, the protease stability score turned out to be 1.3.

As to “DDEERDLKRAYELWVHNMLTGNWRMLNYLADPNTKIEFENHKSHGRESLHELLKRLGVDHMHIELEDMHFVGDKIILHTREEHRVGDKEIRTEVHIDARKINGRWRLQSVHFR”, the protease stability score is 0.97.

Take “DDEERDVLRIMRIVLKLWKTGNEEKYEHLLDPDVRMEVDGRNLHGRETVSHWLHRLREEIRIDDYKIETVRAQGNKSILHVRTDGIINGQEVRLTEEITIIVINGRIQTFSIHRH”: the protease stability score is 0.628.

“DDEEREVHKATEDWFKLVKTGNEEVRHELLDPHTRLIIGDKEFHGREELLRWERELGYKFKTFIITDIKVQGNKAIIHGVDVGTINGVERHLDVRLLILKVNGKWITREIEVR”: the protease stability score was 1.62.

“DDEERHASTIFELLMEVILTGDEDTFEELADPNTRFDINGREFHGREYMSHLKTQYDHWYLKHMHITSSEVQGNFAILNSETDYELEYGDKRVSFYERWHLFVLKVDGRWIIHSFRIN”: the protease stability score turned out to be 0.985.

For the sequence “DDEERIASFVIKMWLHSYLTGDENLLREFLDPNVKVRNEVNGRDWTHHGREALLWLLEFLGVKHVEHVRLHDLLVVNGRATSREIYHGKIGDKRTTFHFTLYIIRIDGVVKKFEIELE”, the protease stability score was 1.3.

“DDEERILHRIKELFEAAMHTGDWRLEFQQADPHTRVEIGDKEIHGMENIFDMLEDFWRELGIDQIDVEVRDEDSHIQGDKIILHVDITLRYNGVQERFKSTIILQKIDGRWHKKTEHRG” returned a protease stability score of 1.16.

In turn, “DDEERIWRELLEDLLKALKTGDEHRIQDLLDPHVRLEIGDKEFHGREEVTEWFRRLMEKIKGAVFHIHIHDFRIQGDKLLADTRLIIHIGDKHEESETEMIVLKVNGRWLIDEIRVK” yielded a protease stability score of 2.59.

“DDEERIWRELLEIWIKLMETGDEDTTRKNADPHAKHILVIGDFTLVLHGWDLTVKFLKELSERMGINHIHVHRVEAINGQVHIDSRLRVGDKDVHTHIRIKIVDGVLKETNLHIK” showed a protease stability score of 1.62.

In turn, “DDEERLIKHLAERWMKDLHTGNEDSLEEMADPNWRLRQIVNGQEVRDIGREKMIEVIREIEKKLGIDRIELHVHKVEIQGDKAHLNTEIRYNGQSSLHEIRLTIINGRLHSVTIHVK” registered a protease stability score of 0.85.

Sequence “DDEERQAREFLKNYIRSLLTGDEDTLDELVDPNARWHVGDYHMIGRDSVSFLTKHLRIKHIEIKDIEIYGNKAIVLVHMHGIIDGKERDTDIIIFVEKINGQWKVREHRIS” returned a protease stability score of 1.15.

On to “DDEERWTEEMYRIMIHIEKTGDEHTFSRLADPNVRLIVGDKHFHGRETFIEQLRKLIEHIRVEKIEIRHVELVGEKVILVMKRLSRIDGREVELEVHVEIVIVNGRYKMIRIEIR”, for which the protease stability score came to 1.43.

Turning to “DDEHEHYRRQTKLVEDLFLTGDWDKIFRLLDPHVRMEINGRQHIGRERVTTEFKQHIEDLGIDHVEIKRSHVQGEKMHLDGVIEFNGRKQSSELIIVIIDGVWHSIVVQLH”, the protease stability score came to 1.09.

Consider “DDEHHDAVRVIEEFVTSVLTGNWEILKELLDPNVKFEIDGREIWGREFVNREIEEIRIRSRMEVRSVRFQGEKMEVDTEYNVDLNIGDKRFHYRRSTRVILEKYDGRWRIQSFHFE”, for which the protease stability score is 0.284.

In the case of “DDEIRFLFKIAHLWMRSHSTGDERVLEHLMDPHVRIDFNGVELHGWKDMLTEWKEIRIIIEHVEIDHYDVQGDKMELNGRISGTFHFNGRTRTTDFRSELRFTVINGKLHSVEIHYR”, the protease stability score was 1.41.

In turn, “DDEKARQQVREFIRAMETGDEDSMVQQLDENAHVHIGDHVWRGREQARNAFKEFVKQFDRIEVKRVEYRNGDVVIDAVANVNGVRVRIIFKIHIHNGRIKNLRIEYRDEEEKKQLDG” showed a protease stability score of 2.29.

With “DDEKEEVERLARLFIHYVLTGDEDTLREMVDPNVRIRIGDKRNHGMKFLLHLITVWLERVDHVRIEVDESRLVNGQLNMTGTLHLHQGDKTQELRTRSHLVIVNGVMKEITFEYD”, the protease stability score turned out to be 2.06.

Take “DDEKEILRIAIEWSELVSNTGDEKTVEHLADPHVRIHYGDKDYVGRERMVEFVHRFKNLKLEIKDTDVQGEYIHVNGKMKFNGRTFDVEIVVFKIDGVWFEKSVEFK”: the protease stability score worked out at 1.38.

The sequence “DDEKEITHTLSEIWIHTVRTGDEDTATNLVDPHARLDYNGREFHGRELISELMIRHLTEWRITHIHIDHVRVINGRFEIHSHQDGHFDGVRRKVEVHIDIIIIDGVVKEIRIRVH” gave a protease stability score of 1.17.

In turn, “DDEKKHALEVVRKYFRAFLTGDEDESFELMDPRVKVDINGRDIHGWEEYRKWMEEIRIHDHRVKEEHFRVYDGRLIIIIRGELNGEINGRRFEFEFNIIIVVAKVDGQWRTESFKMEIH” displayed a protease stability score of 1.31.

For “DDEKREMVEMLKIFIHNFLTGDWRTMEKLLDPDARFIINGQTFHGREWVRHSLHVFLHQFEHIHHIVIHDIDLQGDKVNIDGKLDGTVNGKRRLLDSHWHLRVVNGRVKEIEIHIH”, the protease stability score is 2.12.

Sequence “DDEKRFTHEAIKTSEEVMKTGDERLMRELMDPNVRSEIDGRDVHGMDIITEWLSHIRIEDIKLRRITVIDGVITIRGEVYFEQGDKIVTFDVTIIYEKIDGRWLLRSLHVK” showed a protease stability score of 1.53.

The sequence “DDEKRWLEELWKDIQRADETGDEEHFLHLADPHVRFHVNGRDVHGMELVAHILLKWLNEIRIKDFRLKDMRMFENHLRVDGSIVLIVNGQEIETDMILRFEVVNGRIKDREIDIR” had a protease stability score of 1.37.

In turn, “DDELKTTHKFAKEFVDQLTTGDWEWHDKLFDPDARMSMIIDGREVRLHGREELTRWHLKVFEDLGIERVHSRYEHMHVVDGQIHFRGVLEFNGQRREFHIDMRIVDGRMHEFHEIHN” showed a protease stability score of 0.329.

In turn, “DDENKFWKEFMDIWVRSLETGNEEELAKLIDPHARLHVNGVENHGREIVLKWFHHHLKHAGVDHRTFHDMRVFDGVNFIDGTLHVNGVTREIRLKVYVVNGVVESEEVRIH” had a protease stability score of 1.03.

In the case of “DDENKQMEEAIWIWKYMVETGDERINHEFADPHARVDINGKEHHGREEIERFLIEFSEKVKNLRVEIEDFRSINGRVDVILRLTVNGKRVETRVHAIKVDGKWLIKEVRFH”, the protease stability score was found to be 0.624.

As for “DDEREEAKRAIEDLVRDLETGNWKHLHEFLDPNVRIRVGDKDIHGREEATHHLRRLHEKFKNLKVIIEHVDIVGNKIIEHGHIEIGDKSMEVEIIIIKINGRWYIKEIHIK”, the protease stability score amounted to 1.6.

With “DDERRDTKLAIDLWVETWHTGDEQMFEDLADPHTRIIIGDKEHVGREEAVRYSSELIRRLGANHVDVTFRETRMYNGRIDVKGEINLHIGDKDHHREVHVYSRKIDGRWVLERIEFR”, the protease stability score was determined as 1.3.

“DDERRHTEKVLELWTRFLYTGDEHRMSELLDPNTQLRVGDKDLHGWHLFVHFISELIRKLGVDHLEVELKHADIINGRAELHVKFHFHTENHHTTINIIFFYEKIDGVWLIKSIEIK”: the protease stability score is 2.04.

Sequence “DDESEHSMKVFRFWAEARETGDEDTLTRLLDPHARLIQGDKHIIGREEWTRIIKERREQYGVKHIHFHIQDMRIFNGRVHLKVHYEIKFDGQSVTIDSEIIITKVDGRWYFESETKR” had a protease stability score of 1.11.

“DDESEKAEHIYELLTRLMLTGDEQIIHKLMDPNVRLDVDGQEYHGREEVVSAWRRWLKEMGVDHLELKSVRLIFFNGQLHIHINGEVRFNGRKHRVHIRLVLRKIDGVWHLEELEVEYK”: the protease stability score amounted to 1.92.

“DDETDRSEKVAQMFVDLLTTGDWERLRHLMDPHVRMDINGQESHGRENVFRFFQKIRERLGLDRFHIEVTHIDVQGDKALWHGTLNINGQEHEVIIRIDVVDGRWHEVRMEVR” showed a protease stability score of 2.62.

“DDETEHLEKSVRDLVTSIKTGNWEEFYKMFDPNMRVDINGQQYHGRENAVEMVRQLWERLGAKHVHLTEIRYYGDKLELIMHVHFDGRDKEEEYIAVKIDGRWLLTEVRFK” came in with a protease stability score of 2.08.

In turn, “DDETEYAREASEMWVKLLITGDEEIREEYIDPHAKMDQGEYEYHGREQVSRFSKKLIDTMGVKHFDIKSIEIQGDKVILFMHEHFENRRVDLIFYSRKFDGRWHYRRMEVIHR” had a protease stability score of 0.543.

In the case of “DDETHEYEEAMELWVKALTTGNEDLLKDLHDPHTLTRINGRTEHGRHTWVEIRRKLGVKHLHIETSRLIDGRVHLHARIHVGDKNLEIIVIIVKVNGRWLTSEINIH”, the protease stability score is 0.951.

In turn, “DDFDRNIEKLMKDLLHNWRTGNEDEFLRLIDPNARLTVGDYESHGREEYARVLRELLEEMRLHQVHIRHVEYFDGQADIDIREDGFINGQRIILTTRIIVVKVNGRWVVKSHVIN” had a protease stability score of 0.967.

Regarding “DDHDEELQRIVEIIFRHISTGNFDHLYKYLDPNVRMIIWIGDKNITAHGREHMSEVLHKLWKHLRIKDVDLHDVKSQGEKAIVDTHVHGIIDGKDTHIKTTLIVIIVDGRLKQMEVEVK”, the protease stability score is 2.59.

Sequence “DDHDKLLQKLMRFWLWAFLTGDEDHFDEMADPNTRLSSIVNGRDIQLHGREQVNKHFKELRLHHFILRTWSVYDGRVEIDGQMDGEYDGRRIDTRVTIIIVIINGRSTREHLDFK” yielded a protease stability score of 0.261.

With “DDHDKLMQDLTSMFVRDLITGDEKSMDELLDPDVKVDINGQETHGRDHFLEILNKNLKEWRVKDVKIEHVEWYGNKAHIRMEVIGNWNGKEHSLDFELHLLIVNGQFKEIRIKIR”, the protease stability score amounted to 1.5.

In the case of “DDHEEEVLRLLHTVLRIMWTGDEDELHRLADPNMKMWINGRKFHGRETAIETLKRMVNEIRIHEIHVKDFDVIGEYAHVDTRVRGTINGKETILNERIIVLVIDGRIKSIRIDLK”, the protease stability score was determined as 2.13.
